# Results published in the supplement of paper PMC7125110.
# ± gives the standard error. Fewer inactive variants are shown than the library holds.
# B1: glmS ribozyme (parent)
# chain: AUAAAAGCGCCAGAACUACAGAAAUGUAGUUGACGAGGAGGAGGUUUAUCGAAUUUUCGGCGGAUGCCUCCAAA
# Experiments:
# Settings in all cases: with glucosamine-6-phosphate
# [1] = variants of: B1; test: self-cleavage kobs at 40 uM GlcN6P; higher = faster cleavage; RNA array
# Method in brief: (§1)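 Weighted Michaelis–Menten fits across concentrations supplied kcat and KM, based on kobs from one- or two-exponential decay fits to normalised per-tile medians. The data came from barcoded ribozyme variants transcribed in situ by E. coli RNA polymerase on sequenced MiSeq chips and tracked at 37 °C by a hybridised Cy3 probe. Glucosamine-6-phosphate (40 μM to 10 mM) in HEPES/KCl/Mg(OAc)2 buffer was flowed in.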
# [2] = variants of: B1; test: self-cleavage kobs at 640 uM GlcN6P; higher = faster cleavage; RNA array
# Method in brief: as §1
# [3] = variants of: B1; test: self-cleavage kobs at 2500 uM GlcN6P; higher = faster cleavage; RNA array
# Method in brief: as §1
# [4] = variants of: B1; test: self-cleavage kobs at 10000 uM GlcN6P; higher = faster cleavage; RNA array
# Method in brief: as §1
# [5] = variants of: B1; test: self-cleavage kobs at 160 uM GlcN6P; higher = faster cleavage; RNA array
# Method in brief: as §1
Variant,self-cleavage kobs at 40 uM GlcN6P [1],self-cleavage kobs at 640 uM GlcN6P [2],self-cleavage kobs at 2500 uM GlcN6P [3],self-cleavage kobs at 10000 uM GlcN6P [4],self-cleavage kobs at 160 uM GlcN6P [5]
AUAAAAGCGCCAAAACUACAGAAAUGUAGUUGACGAGGAGGAAGUUUAUCGAAUUUUCGGCGGAUGACUCCAAA [G13A G43A C67A],< 1e-05 s⁻¹,,,,
AUAAAAGCGCCAAAACUACAGAAAUGUAGUUGACGAGGAGGAGGUUUAUCGAAUUUUCGGCGGUUGCCUCCAAA [G13A A64U],< 1e-05 s⁻¹,< 1e-05 s⁻¹,< 1e-05 s⁻¹,< 1e-05 s⁻¹,
AUAAAAGCGCCAAAACUACAGAAAUGUAGUUGACCAGGAGUAGGUUUAUCGACAUUUCGGCGGAUGCCUCCAAA [G13A G35C G41U A53C U54A],< 1e-05 s⁻¹,,,,
AUAAAAGCGCCAAAACUACAGAAAUGUAGUUGACGAGGAGGAUGUUUAUCGAAUUUUCGGCGGAUGCCUCCAAA [G13A G43U],< 1e-05 s⁻¹,< 1e-05 s⁻¹,,,< 1e-05 s⁻¹
AUAAAAGCGCCUGAACUACAGAAAUGUAGUUGACGAGGAAGAGGUUUAUCGAAUUUUCGGCGCAUGCCUCCAAA [A12U G40A G63C],< 1e-05 s⁻¹,,,,
AUAAAAGCGCCUGAACUACAGAAAUGUAGUUGACGAGGAGGAGGUUUAUCGAAUUAUCGGCGGAUGCCUCCAAA [A12U U56A],0.00122 ± 0.00016 s⁻¹,0.0157 ± 0.0027 s⁻¹,0.04 ± 0.012 s⁻¹,0.0626 ± 0.016 s⁻¹,0.0024 ± 0.00059 s⁻¹
AUAAAAGCGCCAAAACUACAGAAAUGUAGUUGACGAGGAGGAGUUUUAUGGAAUUUUCGGCGGAUGCCUCUAAA [G13A G44U C50G C71U],< 1e-05 s⁻¹,< 1e-05 s⁻¹,,,
AUAAAAGCGCCUGAACUACAGAAAUGUAGUUGACGAGGAGGAGGAUUAUCGAAUUUUGGGCGGAUGCCUCGAAA [A12U U45A C58G C71G],< 1e-05 s⁻¹,,4.36e-05 ± 1.4e-05 s⁻¹,3.15e-05 ± 1.5e-05 s⁻¹,
AUAAAAGCGCCAAAACUACAGAAAUGUAGUUGCCGAGGAGGAGGUUUAUAGAAUUUUCGGCGGAUGCCUCUAAA [G13A A33C C50A C71U],< 1e-05 s⁻¹,,< 1e-05 s⁻¹,,
AUAAAAGCGCCAAAACUACAGAAAUGUAGUUGACGAGGAGGAGGUUUAUCAAAUUUUCGGCGGAUGCCUCCAAA [G13A G51A],< 1e-05 s⁻¹,< 1e-05 s⁻¹,,< 1e-05 s⁻¹,
AUAAAAGCGCCAAAACUACAGAAAUGUAGUUGACGAGGAGGAGGUUUAUCCAAUUUUCGGCGGAUGCCUCCAAA [G13A G51C],< 1e-05 s⁻¹,,,< 1e-05 s⁻¹,< 1e-05 s⁻¹
AUAAAAGCGCCAAAACUACAGAAAUGUAGUUGACGAGGAGCAGGUUUAUCGAAUUUUCGGAGGAUGCCUCCAAA [G13A G41C C61A],< 1e-05 s⁻¹,< 1e-05 s⁻¹,,,< 1e-05 s⁻¹
AUAAAAGCGCCUGAACUACAGAAAUGUAGUGGGCGAGGAGGAGGUUUAUUGAAUUUUCGGCGGAUGCCUCCAAA [A12U U31G A33G C50U],< 1e-05 s⁻¹,,,,
AUAAAAGCGCCUGAACUACAGAAAUGUAGGUGACGAGGAGGAGGUUGUCCGAAUUUUCGGCGGAUGCCCGCAAA [A12U U30G U47G A48U U49C U69C C70G],< 1e-05 s⁻¹,,,< 1e-05 s⁻¹,
AUAAAAGCGCCUGAACUACAGAAAUGUAGUUGACGAGGAGGAGGUUUAUCGAAUUUUCCGCGGAUGCCUCCAAA [A12U G59C],< 1e-05 s⁻¹,< 1e-05 s⁻¹,< 1e-05 s⁻¹,< 1e-05 s⁻¹,< 1e-05 s⁻¹
AUAAAAGCGCCUGAACUACAGAAAUGUAGUUGACGAGGAGGAGGGUUAUCGAAUCUUCGGCGGAUGCCUCCAAA [A12U U45G U55C],0.000356 ± 7.4e-05 s⁻¹,,,0.00793 ± 0.002 s⁻¹,

Variant,self-cleavage kobs at 40 uM GlcN6P [1],self-cleavage kobs at 640 uM GlcN6P [2],self-cleavage kobs at 2500 uM GlcN6P [3],self-cleavage kobs at 10000 uM GlcN6P [4],self-cleavage kobs at 160 uM GlcN6P [5]
AUAAAAGCGCCAAAACUACAGAAAUGUAGUUGACGAGGAGGAGGUUUAUCGAAUUUUCGGCGGAUGACUCAAAA [G13A C67A C71A],< 1e-05 s⁻¹,,,,
AUAAAAGCGCCAAAACUACAGAAAUGUAGUUGACGAGGAGGAGGUUUAUCAAAUUUUCGGCCGAUGCCUCCAAA [G13A G51A G62C],< 1e-05 s⁻¹,,,,
AUAAAAGCGCCAAAACUACAGAAAUGUAGUUGACGAGUAGGAGGUUUAUGGAAUUUUCGGCGGGUGCCUCCAAA [G13A G38U C50G A64G],6.47e-05 ± 2.4e-05 s⁻¹,0.00011 ± 5.2e-05 s⁻¹,,,
AUAAAAGCGCCUGAACUACAGAAAUGUAGUUGACGAGGAGGAGGUUUAUCCAAUUUUCGGCGGAUGCCUCCAAA [A12U G51C],< 1e-05 s⁻¹,< 1e-05 s⁻¹,< 1e-05 s⁻¹,,< 1e-05 s⁻¹
AUAAAAGCGCCAAAACUACAGAAAUGUAGUUGACGAGGAGGAGAUUUAUCGAAUUUUCGGCGGAAGCCUCCAAA [G13A G44A U65A],< 1e-05 s⁻¹,,,,
AUAAAAGCGCCUGAACUACAGAAAUGUAGUUGACGAGGAGGAGAUUUAUCGAAUUUUCGGCGGAUGUCUCCAAA [A12U G44A C67U],0.00174 ± 0.00037 s⁻¹,,,0.0153 ± 0.006 s⁻¹,
AUAAAAGCGCCAAAACUACAGAAAUGUAGUUGACGAGGAGGAGGUUUAUCGAAUUUUCGGCUGAUGCCUCCAAA [G13A G62U],< 1e-05 s⁻¹,< 1e-05 s⁻¹,< 1e-05 s⁻¹,< 1e-05 s⁻¹,< 1e-05 s⁻¹
AUAAAAGCGCCAAAACUACAGAAAUGUAGUUGACGAGGAGGAGGUUUAUCGAAUUUUCGGGGGAUGCAUUCAAA [G13A C61G C68A C70U],< 1e-05 s⁻¹,,,,
AUAAAAGCGCCUGAACUACAGAAAUGUAGUUGACGAGGAGGAGGUCUAUCGAAUUUUCAGCGGAUGCCUCCAAA [A12U U46C G59A],< 1e-05 s⁻¹,,,5.26e-05 ± 1.6e-05 s⁻¹,
AUAAAAGCGCCAAAGGUACAGAAAUGUAGUUUACGAGGAGGCGGUAUAUCGAAUUUACGGCGGAUGCUUCCAAA [G13A A15G C16G G32U A42C U46A U57A C68U],< 1e-05 s⁻¹,,,,
AUAAAAGCGCCUGAACUACAGAAAUGUAGUUGACGAGGAGGAGGUUUAUCGAAUUUACCCCGGAUGCCUCCAAA [A12U U57A G59C G60C],< 1e-05 s⁻¹,,,,
AUAAAAGCGCCAAAUCUACAGAAAUGUAGUUGACGACGAGGAGGUUUAUCGAAUUUUCGGCGGAUGCCUCCAAA [G13A A15U G37C],< 1e-05 s⁻¹,,,,
AUAAAAGCGCCUGAACUACAGAAAUGUAGUUGACGAGGAGGAGGUUUAUCGAAUUUUCGGCGAAUGCCUCCAAA [A12U G63A],< 1e-05 s⁻¹,< 1e-05 s⁻¹,< 1e-05 s⁻¹,< 1e-05 s⁻¹,< 1e-05 s⁻¹
AUAAAAGCGCCUGAACUACAGAAAUGUAGUUGACGAGGAGGAGGAUUAGUGAAUUUUCGGCGUAUGCCCCCAAA [A12U U45A U49G C50U G63U U69C],< 1e-05 s⁻¹,< 1e-05 s⁻¹,< 1e-05 s⁻¹,< 1e-05 s⁻¹,
AUAAAAGCGCCAAAUCUACAGAAAUGUAGUUGACGAGGAGUAGGUUUAUAGAAAUUCCGGCGGAUGCCUCCAAA [G13A A15U G41U C50A U54A U57C],< 1e-05 s⁻¹,,,< 1e-05 s⁻¹,
